This note sets out measurements from article PMC9756947, “Structural basis of transcription regulation by CNC family transcription factor, Nrf2” (Nucleic Acids Research, 2022).

The target in series [1] is T1, Nrf2 long fragment, wild type;MafG (EMSA construct) (Homo sapiens;Homo sapiens, UniProt Q16236;O15525 ;, |). Nature of the series: EMSA (competitive, vs MafG homodimer); EC50 of Nrf2 at 1 nM MafG; 4 C, 16 h; EMSA: 20 mM Tris-HCl pH 7.2, 150 mM KCl, 10 mM DTT, 8 mg/ml BSA, 0.005% Tween 20, 50 ng/ml poly(dI-dC), 2.5% Ficoll; probe ~1.6 pM; 16 h (30 min for Jun-Fos); competitive assay at 4 C; gel at 4 C. To be noted: protein: recombinant;recombinant; tags: N-terminal His6 (not removed);N-terminal His6, removed by HRV 3C (GPHM left); copies: 1;1; label: 32P 5' end; text says 30 bp). On the technique in general: Mobility shift assays separate free from complexed probe on a gel.

Series [2] has as its target c-Jun fragment;c-Fos fragment (Homo sapiens;Homo sapiens, UniProt P05412;P01100 ;, |). Put plainly: EMSA; heterodimer; 30 min; EMSA: 20 mM Tris-HCl pH 7.2, 150 mM KCl, 10 mM DTT, 8 mg/ml BSA, 0.005% Tween 20, 50 ng/ml poly(dI-dC), 2.5% Ficoll; probe ~1.6 pM; 16 h (30 min for Jun-Fos); competitive assay at 4 C; gel at 4 C. The note with it: protein: recombinant;recombinant; tags: N-terminal His6;N-terminal His6; copies: 1;1; label: 32P 5' end; text says 30 bp).

The target in series [3] is T1, Nrf2 long fragment, wild type;MafG …. Nature of the series: EMSA; Nrf2:MafG 3:1; MafG concentration taken as heterodimer; 16 h; EMSA: 20 mM Tris-HCl pH 7.2, 150 mM KCl, 10 mM DTT, 8 mg/ml BSA, 0.005% Tween 20, 50 ng/ml poly(dI-dC), 2.5% Ficoll; probe ~1.6 pM; 16 h (30 min for Jun-Fos); competitive assay at 4 C; gel at 4 C. To be noted: protein: recombinant;recombinant; tags: N-terminal His6 (not removed);N-terminal His6, removed by HRV 3C (GPHM left); copies: 1;1; label: 32P 5' end; text says 30 bp).

Series [4] concerns the target MafG (EMSA construct) (Homo sapiens, UniProt O15525). Nature of the series: EMSA; homodimer; 16 h; EMSA: 20 mM Tris-HCl pH 7.2, 150 mM KCl, 10 mM DTT, 8 mg/ml BSA, 0.005% Tween 20, 50 ng/ml poly(dI-dC), 2.5% Ficoll; probe ~1.6 pM; 16 h (30 min for Jun-Fos); competitive assay at 4 C; gel at 4 C. The note with it: protein: recombinant; tags: N-terminal His6, removed by HRV 3C (GPHM left); chain copies: 2; label: 32P 5' end; text says 30 bp).

Series [5] concerns the target T2, human Nrf2 fragment (residues 452–560) (human, UniProt Q16236 452-560).
T2 construct: His6 tag removed with HRV 3C protease; also called NFE2L2; Nuclear factor erythroid 2-like factor; source: E. coli BL21 (DE3), purified (phosphocellulose P11, HisTrap HP, HiTrap SP, Superdex 75); not shown: His6, N-terminal, cleaved
T2 sequence (looked up): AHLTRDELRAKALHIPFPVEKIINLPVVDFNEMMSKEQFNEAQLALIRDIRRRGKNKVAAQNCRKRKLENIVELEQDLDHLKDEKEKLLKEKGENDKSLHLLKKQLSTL
Nature of the series: crystal structure; Nrf2, MafG and DNA (CsMBE1 or CsMBE2) mixed at a molar ratio of 1:1:1, 10 mg/ml in 33 mM DTT; two Nrf2–MafG–DNA complexes in the asymmetric unit. To be noted: both partners purified.

Series [6] concerns the molecule itself. Nature of the series: native gel or EMSA; EMSA to determine KD for DNA: dimers mixed with 32P-end labeled CsMBE DNA probe (about 1.6 pM) in 20 mM Tris–HCl pH 7.2, 150 mM KCl, 10 mM DTT, BSA, Tween 20, Poly(dI-dC), Ficol; 30 min (Jun–Fos) or 16 h (Nrf2–MafG, MafG homodimer); Nrf2 and MafG mixed at 3:1; complexes seen on DNA.
The target in series [7] is T3, longer human Nrf2 fragment (residues 182–560) (human, UniProt Q16236 182-560).
T3 construct: human Nrf2 (NFE2L2), residues 182-560; Used for EMSA; also called Nrf2 (182–560); wild-type Nrf2; not shown: His6, N-terminal, kept
T3 sequence (looked up): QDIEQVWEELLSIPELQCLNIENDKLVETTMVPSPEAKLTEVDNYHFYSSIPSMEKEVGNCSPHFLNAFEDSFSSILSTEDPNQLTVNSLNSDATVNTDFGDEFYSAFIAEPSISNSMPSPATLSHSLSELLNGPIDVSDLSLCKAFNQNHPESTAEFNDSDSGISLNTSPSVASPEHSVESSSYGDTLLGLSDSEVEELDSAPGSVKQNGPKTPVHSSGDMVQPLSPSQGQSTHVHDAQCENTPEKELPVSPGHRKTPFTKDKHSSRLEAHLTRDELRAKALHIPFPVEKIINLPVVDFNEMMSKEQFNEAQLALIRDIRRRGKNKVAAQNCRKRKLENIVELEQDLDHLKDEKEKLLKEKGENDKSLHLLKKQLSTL
The description is as above. To be noted: both partners purified.

For series [8], the target named is T4, human c-Fos fragment (residues 111–207) (human, UniProt P01100 111-207).
T4 construct: human c-Fos, residues 111-207; The tag is cleavable with HRV 3C protease, but no removal is described; source: E. coli BL21(DE3)-RIL, precipitate solubilized in 6 M guanidine-HCl, purified (HisTrap HP), dialyzed
T4 sequence (P01100 111-207): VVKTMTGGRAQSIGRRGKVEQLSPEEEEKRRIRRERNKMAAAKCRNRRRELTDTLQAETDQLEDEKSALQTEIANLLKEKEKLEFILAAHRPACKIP
The series is described as above. The note with it: both partners purified.

In series [9] the target is T5, Nrf2 DNA-binding domain (CNC-bZIP);MafG (crystal construct) (Homo sapiens;Homo sapiens, UniProt Q16236;O15525 ;, |). Put plainly: X-ray crystallography; 2.6 A; EMSA: 20 mM Tris-HCl pH 7.2, 150 mM KCl, 10 mM DTT, 8 mg/ml BSA, 0.005% Tween 20, 50 ng/ml poly(dI-dC), 2.5% Ficoll; probe ~1.6 pM; 16 h (30 min for Jun-Fos); competitive assay at 4 C; gel at 4 C. The note with it: protein: recombinant;recombinant; tags: N-terminal His6, removed by HRV 3C (GPHM left);none; copies: 1;1; 1-nt 5' overhang on each strand (15 bp).

Series [10] concerns the target T5, Nrf2 DNA-binding domain (CNC-bZIP);MafG …. Nature of the series: X-ray crystallography; 2.3 A; EMSA: 20 mM Tris-HCl pH 7.2, 150 mM KCl, 10 mM DTT, 8 mg/ml BSA, 0.005% Tween 20, 50 ng/ml poly(dI-dC), 2.5% Ficoll; probe ~1.6 pM; 16 h (30 min for Jun-Fos); competitive assay at 4 C; gel at 4 C. To be noted: protein: recombinant;recombinant; tags: N-terminal His6, removed by HRV 3C (GPHM left);none; copies: 1;1; 1-nt 5' overhang on each strand (15 bp).

In general, Kd refers to the constant that tells how readily two partners part at equilibrium.

c-Jun fragment;c-Fos fragment, sequence (P05412 other isoform, or with tags, fused parts or gaps |, chain 1 of 2): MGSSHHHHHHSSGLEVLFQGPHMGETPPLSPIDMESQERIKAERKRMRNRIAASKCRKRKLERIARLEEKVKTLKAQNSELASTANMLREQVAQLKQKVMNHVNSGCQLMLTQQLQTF
c-Jun fragment;c-Fos fragment, sequence (P01100 other isoform, or with tags, fused parts or gaps |, chain 2 of 2): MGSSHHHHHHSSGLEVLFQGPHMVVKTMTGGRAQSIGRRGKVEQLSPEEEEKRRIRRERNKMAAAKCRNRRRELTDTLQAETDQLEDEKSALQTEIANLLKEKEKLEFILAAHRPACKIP

B1: EMSA CsMBE probe (dsDNA)
DNA 1: CCGCAGTCACAGTGACTCAGCAGAATCTGA
DNA 2: CTCAGATTCTGCTGAGTCACTGTGACTGCG
On to B1, for which the “apparent K (half saturation)” value in [1] came to 2.1 nM. Further, the Kd was determined as 129 nM in [2], 0.53 nM in series [3] and 0.69 nM in series [4].

B2: human MafG (residues 21–123, without any tag) (domain or fragment, UniProt O15525 21-123, looked up)
chain: GTSLTDEELVTMSVRELNQHLRGLSKEEIVQLKQRRRTLKNRGYAASCRVKRVTQKEELEKQKAELQQEVEKLASENASMKLELDALRSKYEALQTFARTVAR
notes: human MafG, residues 21-123: EHR, basic region and leucine zipper; Construct used for crystallization; source: E. coli BL21 (DE3), pAR2156-MafG, plating method, purified (HiTrap Heparin, Superdex 75)
For B2, the binding result in [5] is listed as “binds”.

B3: human MafG fragment (residues 21–123), His6 tag removed (domain or fragment, UniProt O15525 21-123, looked up)
chain: B2 chain
notes: human MafG, residues 21-123; Construct used for EMSA; also called MafG (21–123); source: E. coli BL21(DE3)-RIL, purified (phosphocellulose P11, HisTrap HP, Superdex 75); not shown: His6, N-terminal, cleaved
In the case of B3, the binding result in series [6] and in [7] was “binds” in each case.

B4: human c-Jun fragment (residues 237–331) (domain or fragment, UniProt P05412 237-331, looked up)
chain: GETPPLSPIDMESQERIKAERKRMRNRIAASKCRKRKLERIARLEEKVKTLKAQNSELASTANMLREQVAQLKQKVMNHVNSGCQLMLTQQLQTF
notes: human c-Jun, residues 237-331; source: E. coli, expressed and purified similarly to the c-Fos fragment
With B4, the binding result in series [8] is recorded as “binds”.

B5: CsMBE2 (dsDNA)
DNA 1: CACAGTGACTCAGCAG
DNA 2: GCTGCTGAGTCACTGT
Turning to B5, the binding result in [9] was “binds”.

B6: CsMBE1 (dsDNA)
DNA 1: CATGATGAGTCAGCAA
DNA 2: GTTGCTGACTCATCAT
As for B6, in series [10], the binding result was “binds”.
